Reference: patent US20220017612A1 (TILOS THERAPEUTICS, published 2022)
Changes are numbered by the printed parent chain. Names and notes keep the numbering of the source.

B1: 20E6_H0.2aL1_hIgG1 VH_D52A (antibody, V domains shown)
VH: EVQLVQSGAEVKKPGASVKVSCKASGYTFTSYWMHWVRQAPGQGLEWMGRIAPQSGGIKYAQKFQGRATLTVDTSTSTAYMELSRLRSDDTAVYYCARWDYGGYFDVWGQGTLVTVSS
VL: DIQMTQSPSSLSASVGDRVTITCRASQDITNYLNWYQQKPGKAVKLLIYYTSRLHSGVPSRFSGSGSGTDYTLTISSLQPEDFATYFCQQGDTLPWTFGQGTKLEIKR
B2: 20E6_H0.2aL1_hIgG1 VH_D100A (antibody, V domains shown)
VH: B1 VH with A52D, D100A
VL: B1 VL
B3: 20E6_H0.2aL1_hIgG1 VH_D106A (antibody, V domains shown)
VH: B1 VH with A52D, D106A
VL: B1 VL
B4: 20E6_H0.2aL1_hIgG1 VH_F29A (antibody, V domains shown)
VH: B1 VH with F29A, A52D
VL: B1 VL
B5: 20E6_H0.2aL1_hIgG1 VH_G26A (antibody, V domains shown)
VH: B1 VH with G26A, A52D
VL: B1 VL
B6: 20E6_H0.2aL1_hIgG1 VH_G56A (antibody, V domains shown)
VH: B1 VH with A52D, G56A
VL: B1 VL
B7: 20E6_H0.2aL1_hIgG1 VH_G57A (antibody, V domains shown)
VH: B1 VH with A52D, G57A
VL: B1 VL
B8: 20E6_H0.2aL1_hIgG1 VH_H35A (antibody, V domains shown)
VH: B1 VH with H35A, A52D
VL: B1 VL
B9: 20E6_H0.2aL1_hIgG1 VH_I51A (antibody, V domains shown)
VH: B1 VH with I51A, A52D
VL: B1 VL
B10: 20E6_H0.2aL1_hIgG1 VH_I58A (antibody, V domains shown)
VH: B1 VH with A52D, I58A
VL: B1 VL
B11: 20E6_H0.2aL1_hIgG1 VH_K59A (antibody, V domains shown)
VH: B1 VH with A52D, K59A
VL: B1 VL
B12: 20E6_H0.2aL1_hIgG1 VH_M34A (antibody, V domains shown)
VH: B1 VH with M34A, A52D
VL: B1 VL
B13: 20E6_H0.2aL1_hIgG1 VH_P53A (antibody, V domains shown)
VH: B1 VH with A52D, P53A
VL: B1 VL
B14: 20E6_H0.2aL1_hIgG1 VH_Q54A (antibody, V domains shown)
VH: B1 VH with A52D, Q54A
VL: B1 VL
B15: 20E6_H0.2aL1_hIgG1 VH_S31A (antibody, V domains shown)
VH: B1 VH with S31A, A52D
VL: B1 VL
B16: 20E6_H0.2aL1_hIgG1 VH_S55A (antibody, V domains shown)
VH: B1 VH with A52D, S55A
VL: B1 VL
B17: 20E6_H0.2aL1_hIgG1 VH_T28A (antibody, V domains shown)
VH: B1 VH with T28A, A52D
VL: B1 VL
B18: 20E6_H0.2aL1_hIgG1 VH_T30A (antibody, V domains shown)
VH: B1 VH with T30A, A52D
VL: B1 VL
B19: 20E6_H0.2aL1_hIgG1 VH_V107A (antibody, V domains shown)
VH: B1 VH with A52D, V107A
VL: B1 VL
B20: 20E6_H0.2aL1_hIgG1 VH_W33A (antibody, V domains shown)
VH: B1 VH with W33A, A52D
VL: B1 VL
B21: 20E6_H0.2aL1_hIgG1 VH_Y27A (antibody, V domains shown)
VH: B1 VH with Y27A, A52D
VL: B1 VL
B22: 20E6_H0.2aL1_hIgG1 VH_Y32A (antibody, V domains shown)
VH: B1 VH with Y32A, A52D
VL: B1 VL
B23: 20E6_H0.2aL1_hIgG1 VL_H55A (antibody, V domains shown)
VH: B1 VH with A52D
VL: B1 VL with H55A
B24: 20E6_H0.2aL1_hIgG1 VL_I29A (antibody, V domains shown)
VH: B1 VH with A52D
VL: B1 VL with I29A
B25: 20E6_H0.2aL1_hIgG1 VL_L54A (antibody, V domains shown)
VH: B1 VH with A52D
VL: B1 VL with L54A
B26: 20E6_H0.2aL1_hIgG1 VL_N31A (antibody, V domains shown)
VH: B1 VH with A52D
VL: B1 VL with N31A
B27: 20E6_H0.2aL1_hIgG1 VL_Q89A (antibody, V domains shown)
VH: B1 VH with A52D
VL: B1 VL with Q89A
B28: 20E6_H0.2aL1_hIgG1 VL_R24A (antibody, V domains shown)
VH: B1 VH with A52D
VL: B1 VL with R24A
B29: 20E6_H0.2aL1_hIgG1 VL_R53A (antibody, V domains shown)
VH: B1 VH with A52D
VL: B1 VL with R53A
B30: 20E6_H0.2aL1_hIgG1 VL_S52A (antibody, V domains shown)
VH: B1 VH with A52D
VL: B1 VL with S52A
B31: 20E6_H0.2aL1_hIgG1 VL_T30A (antibody, V domains shown)
VH: B1 VH with A52D
VL: B1 VL with T30A
B32: 20E6_H0.2aL1_hIgG1 VL_T51A (antibody, V domains shown)
VH: B1 VH with A52D
VL: B1 VL with T51A
B33: 20E6_H0.2aL1_hIgG1 VL_T93A (antibody, V domains shown)
VH: B1 VH with A52D
VL: B1 VL with T93A
B34: L48V_F87Y (antibody, human IgG1, kappa, V domains shown)
VH: EVQLVESGGGLVQPGGSLRLSCAASGFTFTDYYMSWVRQAPGKGLEWVGFIRNKPNGYTTEYSASVKGRFTISRDNSQSSLYLQMNSLKTEDTAVYYCARYTGGGYFDYWGQGTLLTVSS
VL: B1 VL with V19L, T22S, T30S, A43T, F83V, F87Y
notes: also called 28G11_H2L3 with HC L48V and LC F87Y
B35: L48V_V44P (antibody, human IgG1, kappa, V domains shown)
VH: B34 VH
VL: B1 VL with V19L, T22S, T30S, A43T, V44P, F83V
notes: also called 28G11_H2L3 with HC L48V and LC V44P
B36: L48V_WT (antibody, human IgG1, kappa, V domains shown)
VH: B34 VH
VL: B1 VL with V19L, T22S, T30S, A43T, F83V
notes: also called 28G11_H2L3 with HC L48V
B37: L109V_F87Y (antibody, human IgG1, kappa, V domains shown)
VH: B34 VH with V48L, L116V
VL: B1 VL with V19L, T22S, T30S, A43T, F83V, F87Y
notes: also called 28G11_H2L3 with HC L109V and LC F87Y
B38: L109V_T43V (antibody, human IgG1, kappa, V domains shown)
VH: B34 VH with V48L, L116V
VL: B1 VL with V19L, T22S, T30S, A43V, F83V
notes: also called 28G11_H2L3 with HC L109V and LC T43V
B39: N73D_F87Y (antibody, human IgG1, kappa, V domains shown)
VH: B34 VH with V48L, N76D
VL: B1 VL with V19L, T22S, T30S, A43T, F83V, F87Y
notes: label to be rechecked; also called 28G11_H2L3 with HC N73D and LC F87Y
B40: N73D_V44P (antibody, human IgG1, kappa, V domains shown)
VH: B34 VH with V48L, N76D
VL: B1 VL with V19L, T22S, T30S, A43T, V44P, F83V
notes: also called 28G11_H2L3 with HC N73D and LC V44P
B41: N73D_Y71F (antibody, human IgG1, kappa, V domains shown)
VH: B34 VH with V48L, N76D
VL: B1 VL with V19L, T22S, T30S, A43T, Y71F, F83V
notes: also called 28G11_H2L3 with HC N73D and LC Y71F

molecular target: biotinylated human LAP-TGFβ1 (Example 14) (human, UniProt P01137 30-390, biotinylated, sites not stated); assay: BLI, antigen on tip, CHO supernatant; ratio to wild type
Sequence (P01137 30-390 limits assumed): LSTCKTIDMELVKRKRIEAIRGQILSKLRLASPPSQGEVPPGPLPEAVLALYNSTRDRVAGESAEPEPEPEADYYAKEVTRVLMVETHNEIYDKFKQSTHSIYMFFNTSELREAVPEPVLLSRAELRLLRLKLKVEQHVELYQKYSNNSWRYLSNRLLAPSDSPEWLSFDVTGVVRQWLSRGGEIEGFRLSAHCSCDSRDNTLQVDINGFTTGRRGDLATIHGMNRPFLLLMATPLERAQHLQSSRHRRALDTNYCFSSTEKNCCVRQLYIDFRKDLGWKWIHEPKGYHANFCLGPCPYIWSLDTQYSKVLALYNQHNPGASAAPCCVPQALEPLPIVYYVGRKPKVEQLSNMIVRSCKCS
Description: A total of 49 single alanine substitutions were made in the heavy and light chain CDRs of the antibody to identify critical residues for human LAP-TGFβ1 binding. In addition, residue A25 in the light chain was substituted with glycine. Plasmid DNA for these variants was transfected into ExpiCHO cells in 1 mL cultures on 24-well plates, along with wells containing no DNA (negative control) and wells transfected with DNA for the wild-type antibody (positive control). IgG concentrations in each well were determined by binding to Protein A-functionalized tips. Tips were dipped into wells containing the supernatants from each culture. IgG concentrations were determined by comparing the rate of signal change for each well against the rate of signal change for a standard curve of purified 20E6_H0.2aL1_hIgG1 antibody diluted into ExpiCHO media. CHO supernatants were diluted to 0.6 μg/mL in media. A streptavidin-functionalized tip was equilibrated in binding buffer (10 mM sodium phosphate, 150 mM sodium chloride, 1% (w/v) bovine serum albumin, 0.05% (w/v) sodium azide, pH 7.4) and then dipped in a 5 μg/mL solution of biotinylated human LAP-TGFβ1 in binding buffer for 60 seconds to load the tip with antigen. The antigen-loaded tip was then washed in binding buffer and placed in the diluted CHO supernatant. The antigen was allowed to bind to antibody for 5 minutes (association phase), and then the tip was moved to binding buffer (dissociation phase). The association and dissociation phases were fit to a 1:1 binding model to determine binding rate constants.

Going from B1 to B2, the “KD,WT/KD,Ala” value falls from 0.71 to 0.28.

First: B3
Second: B4
The “KD,WT/KD,Ala” value of the first is lower: 0.24 for the first, 1.16 for the second.

First: B5
Second: B6
The “KD,WT/KD,Ala” value of the first is lower: 1.4 for the first, 1.62 for the second.

First: B7
Second: B8
The “KD,WT/KD,Ala” value of the first is lower: 0.37 for the first, 2.07 for the second.

Going from B9 to B10, the “KD,WT/KD,Ala” value falls from 0.73 to 0.52.

Going from B11 to B12, the “KD,WT/KD,Ala” value rises from 0.69 to 0.84.

Going from B13 to B14, the “KD,WT/KD,Ala” value falls from 0.87 to 0.67.

Going from B15 to B16, the “KD,WT/KD,Ala” value rises from 0.6 to 0.96.

Going from B17 to B18, the “KD,WT/KD,Ala” value falls from 0.97 to 0.94.

First: B19
Second: B20
The “KD,WT/KD,Ala” value of the first is higher: 1.08 for the first, 0.12 for the second.

First: B21
Second: B22
The “KD,WT/KD,Ala” value of the first is higher: 1.29 for the first, 1 for the second.

Compared with B23, B24 is lower in “KD,WT/KD,Ala” value: 0.33 for the first, 0.02 for the second.

Compared with B25, B26 is higher in “KD,WT/KD,Ala” value: 0.1 for the first, 0.48 for the second.

B27 and B28 are the same in “KD,WT/KD,Ala” value: 0.01 for the first, 0.01 for the second.

First: B29
Second: B30
The “KD,WT/KD,Ala” value of the first is lower: 0.02 for the first, 0.12 for the second.

First: B31
Second: B32
The “KD,WT/KD,Ala” value of the first is higher: 1 for the first, 0.8 for the second.

B33 was tested, and the “KD,WT/KD,Ala” value was 0.64.

molecular target: T1, human LAP-TGFβ1 overexpressed on cells (human, UniProt P01137 30-390); assay: flow cytometry; black bar HT1080-huB1, grey bar HT1080
T1 construct: HT1080 or P3U1 cells overexpressing wild-type human LAP-TGFβ1; also called HT1080-huB1; HT1080-hβ1
T1 sequence (P01137 30-390): as the sequence (P01137 30-390 limits assumed) above

B34: binds.
B35: binds.
B36: binds.
B37: binds.
B38: binds.
B39: no binding.
B40: no binding.
B41: no binding.
